Measured values taken from the supplement of paper PMC9112550, “Optimization of the antimicrobial peptide Bac7 by deep mutational scanning” (BMC Biology, 2022).

Test system: Escherichia coli TOP10
Test: shrunken log2 fold change of peptide-encoding DNA abundance (4.5 h post-induction vs induction); higher = less antimicrobial activity (less host growth inhibition)
Settings: time post-induction: 4.5 h; library: site-saturation at positions 5, 18, 19, 20
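Also: peptides expressed intracellularly from a pBAD plasmid library in pooled LB shake-flask culture, induced with 0.3% L-arabinose, DNA abundance read by NGS, three biological replicates, DESeq2 with apeglm shrinkage.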

Row | Sequence | shrunken log2 fold change
1 | RRIRKRPPRLPRPRPRPINGPRP | 0.00103
2 | RRIRIRPPRLPRPRPRPGDGPRP | 0.281
3 | RRIRFRPPRLPRPRPRPRMVPRP | -0.157
4 | RRIRSRPPRLPRPRPRPIQWPRP | 0.268
5 | RRIRLRPPRLPRPRPRPTQIPRP | 0.14
6 | RRIRVRPPRLPRPRPRPWRVPRP | 0.435
7 | RRIRIRPPRLPRPRPRPYQVPRP | -0.14
8 | RRIRQRPPRLPRPRPRPEDFPRP | -0.0175
9 | RRIRERPPRLPRPRPRPRMTPRP | 0.0697
10 | RRIRARPPRLPRPRPRPVPSPRP | 0.181
11 | RRIRERPPRLPRPRPRPQDLPRP | -0.351
12 | RRIRYRPPRLPRPRPRPQATPRP | -0.108
13 | RRIRLRPPRLPRPRPRPKFPPRP | -0.26
14 | RRIRQRPPRLPRPRPRPSSLPRP | -0.728
15 | RRIRGRPPRLPRPRPRPMQIPRP | 0.406
16 | RRIRQRPPRLPRPRPRPHAEPRP | -0.0176
17 | RRIRARPPRLPRPRPRPCMYPRP | -0.49
18 | RRIRHRPPRLPRPRPRPATSPRP | -0.00994
19 | RRIRARPPRLPRPRPRPQCLPRP | 0.23
20 | RRIRERPPRLPRPRPRPMNDPRP | -0.0199
21 | RRIRNRPPRLPRPRPRPGYYPRP | -0.851
22 | RRIRSRPPRLPRPRPRPGGEPRP | 0.585
23 | RRIRSRPPRLPRPRPRPPWSPRP | 0.25
24 | RRIRVRPPRLPRPRPRPDLQPRP | 0.00798
25 | RRIRERPPRLPRPRPRPYYHPRP | -1.58

Row | Sequence | shrunken log2 fold change
26 | RRIRKRPPRLPRPRPRPRMEPRP | 0.0104
27 | RRIRCRPPRLPRPRPRPFVLPRP | -0.469
28 | RRIRGRPPRLPRPRPRPQYRPRP | 0.0878
29 | RRIRKRPPRLPRPRPRPCVVPRP | 0.0713
30 | RRIRYRPPRLPRPRPRPQDWPRP | -0.258
31 | RRIRIRPPRLPRPRPRPDVRPRP | 0.0768
32 | RRIRNRPPRLPRPRPRPQNRPRP | -0.184
33 | RRIRRRPPRLPRPRPRPPYYPRP | 0.108
34 | RRIRPRPPRLPRPRPRPHRPPRP | 0.0359
35 | RRIRGRPPRLPRPRPRPIYMPRP | -0.191
36 | RRIRNRPPRLPRPRPRPKDVPRP | -0.0116
37 | RRIRLRPPRLPRPRPRPSVKPRP | -0.0487
38 | RRIRDRPPRLPRPRPRPEHIPRP | -0.193
39 | RRIRGRPPRLPRPRPRPKTNPRP | 0.779
40 | RRIRNRPPRLPRPRPRPRHTPRP | -0.096
41 | RRIRERPPRLPRPRPRPPVCPRP | -0.119
42 | RRIRLRPPRLPRPRPRPVSEPRP | 0.172
43 | RRIRTRPPRLPRPRPRPKMMPRP | 0.332
44 | RRIRKRPPRLPRPRPRPAIKPRP | 0.191
45 | RRIRFRPPRLPRPRPRPKDQPRP | 0.0707
46 | RRIRRRPPRLPRPRPRPYHGPRP | -0.169
47 | RRIRTRPPRLPRPRPRPGWYPRP | -0.23
48 | RRIRKRPPRLPRPRPRPPYCPRP | 0.0662
49 | RRIRFRPPRLPRPRPRPQPEPRP | -0.119
50 | RRIRKRPPRLPRPRPRPMQEPRP | 0.0391
